Experimental data taken from patent publication US20070238638A1 (TANOX, published 2007).

Molecular target: T1, NFκB family member p65 (human, UniProt Q04206 1-551)
T1 construct: also called p65 NFκB protein
Assay: EMSA gel supershift, HT29 nuclear extract on κB1 oligonucleotide
Description: Gel supershift assays were performed as described above, except that antibodies specific for various promoter-binding proteins were added after the initial binding reaction and the mixture was incubated overnight at 4° C.

T1 sequence (Q04206 whole entry): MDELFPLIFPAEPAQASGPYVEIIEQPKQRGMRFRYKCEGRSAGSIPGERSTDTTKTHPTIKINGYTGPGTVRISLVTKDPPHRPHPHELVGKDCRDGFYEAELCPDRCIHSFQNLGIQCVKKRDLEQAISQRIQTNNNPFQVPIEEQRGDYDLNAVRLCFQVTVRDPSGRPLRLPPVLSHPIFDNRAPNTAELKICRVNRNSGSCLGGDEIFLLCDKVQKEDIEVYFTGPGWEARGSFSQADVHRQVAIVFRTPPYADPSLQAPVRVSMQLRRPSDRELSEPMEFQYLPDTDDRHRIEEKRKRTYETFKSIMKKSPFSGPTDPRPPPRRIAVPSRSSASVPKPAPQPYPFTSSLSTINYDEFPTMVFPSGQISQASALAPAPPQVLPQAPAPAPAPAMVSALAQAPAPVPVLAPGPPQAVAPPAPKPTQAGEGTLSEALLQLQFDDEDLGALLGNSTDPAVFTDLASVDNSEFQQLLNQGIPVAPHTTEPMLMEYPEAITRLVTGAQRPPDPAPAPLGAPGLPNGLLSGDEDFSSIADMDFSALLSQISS

B1: NFκB family member p50 (other, human, UniProt P19838 1-433, looked up)
chain: MAEDDPYLGRPEQMFHLDPSLTHTIFNPEVFQPQMALPTDGPYLQILEQPKQRGFRFRYVCEGPSHGGLPGASSEKNKKSYPQVKICNYVGPAKVIVQLVTNGKNIHLHAHSLVGKHCEDGICTVTAGPKDMVVGFANLGILHVTKKKVFETLEARMTEACIRGYNPGLLVHPDLAYLQAEGGGDRQLGDREKELIRQAALQQTKEMDLSVVRLMFTAFLPDSTGSFTRRLEPVVSDAIYDSKAPNASNLKIVRMDRTAGCVTGGEEIYLLCDKVQKDDIQIRFYEEEENGGVWEGFGDFSPTDVHRQFAIVFKTPKYKDINITKPASVFVQLRRKSDLETSEPKPFLYYPEIKDKEEVQRKRQKLMPNFSDSFGGGSGAGAGGGGMFGSGGGGGGTGSTGPGYSFPHYGFPTYGGITFHPGTTKSNAGMKHG
notes: also called p50 NFκB protein
- binding result: binds
